Results taken from patent US20030099647A1 (Amgen, published 2003).

Target: T1, CHO expressed human interferon gamma (hIFNγ) (human, UniProt P01579 24-161, glycosylated (highly glycosylated form purified))
T1 construct: mature; The form 'mature' is inferred from secretion into conditioned medium; also called hu-IFNγ; hu IFNγ
T1 sequence (looked up): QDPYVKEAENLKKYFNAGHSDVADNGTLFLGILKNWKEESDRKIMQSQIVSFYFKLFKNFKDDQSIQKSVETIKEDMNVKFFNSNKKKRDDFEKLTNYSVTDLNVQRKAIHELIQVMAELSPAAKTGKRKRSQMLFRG
Experiment: BIAcore neutralization assay; inhibition of hu IFNγ binding to IFNγ-R1

B1: BS-B IgG (antibody, V domains shown)
VH: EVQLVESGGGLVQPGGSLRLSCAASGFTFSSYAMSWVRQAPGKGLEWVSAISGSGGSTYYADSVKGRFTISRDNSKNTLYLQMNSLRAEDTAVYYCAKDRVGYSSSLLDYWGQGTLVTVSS
VL: NFMLTQPHSVSESPGKTVTISCTRSSGSIASYYVQWYQQRPGSSPTTVIYEDDQRPSGVPDRFSGSIDSASNSASLTISGLQTEDEADYYCQSYDRNSLVFGGGTKLTVLG
notes: The construction is described for BS-A; the others were cloned 'using similar procedures'; The VH limits 1-121 come from the germline comparison legend; also called BS-B full-length human IgG1 antibody; not shown: human IgG1 constant region (CH1, hinge, CH2 and CH3 domains) of plasmid pDSRα19:hIgG1 CH
IC50: 9 nM
